Test: label from the status in PepcDB records

Sequence	protein production
MESVRIEQMLSLPAEVSSDNLESAERGASAAQVDMGPHPKVAAEGPAPLPTREPEQEQSPGTSTPESKVLLTQADALASRGRIREALEVYRQLSERQQLVAEQLEQLVRCLAEKVPQGEALAPAPPDEGSTASGTVAAEETGAAAAAAATEVWDGFKCRKCHGFLSDPVSLSCGHTFCKLCLERGRAADRRCALCGVKLSALMVATGRARGARRAGQQPPPPLRVNVVLSGLLGKLFPGPARASQLRHEGNRLYRERQVEAALLKYNEAVKLAPNDHLLYSNRSQIYFTLESHENALHDAEIACKLRPMGFKDNLELPHCSSQEEAAARGDGSSLMDPAKVKGDGQQHHMKDQEEEEEKWDATSPKAASSKTGKCQEKKRKHCQIESQEETGMPNKASKQDPPTDQGDKPALSLPLASFDASDLECALCMRLFYEPVTTPCGHTFCLKCLERCLDHNAKCPLCKDGLSQCLASRKYSKNVIMEELIAKFLPEELKERRKLYEEEMEELSNLNKNVPIFVCTMAYPTVPCPLHIFEPCYRLMIRRCIETGTRQFGMCLGDPVKGFAEYGCILEIRNVQFFADGRSVVDSIGKRRFRVLHQSQRDGYNTADIEYIEDQKVQGEDCAELMGLHNCVYQQASLWFHSLKLSLKNRILNHFGPMPEKDADPQMNPNGPAWCWWMLAVLPLESRAQLPFLAMRSLKDRLNGIRRVLAFISRNQN	failed
ATEEFIIRIPPYHYIHVLDQNSNVSRVEVGPKTYIRQDNERVLFAPMRMVTVPPRHYCTVANPVSRDAQGLVLFDVTGQVRLRHADLEIRLAQDPFPLYPGEVLEKDITP	failed
MEEGPIKKKLKSAGQGSGKTDAFRNFEQFFFRLNTLYTFLICRKHVVPTFKTLCGPIETALKRTVTKEDLAMVMALMPRECVFKYIDENQIYTETKIFDFNNGGFQQKENDIFELKDVDDQNQTQKSTQLLIFEFIDGTMQRSWSASDRFSQIKIPTYTTEEMKKMISKREALFKSRLREFILEKEKANLDPFSELTNLAQKYIPRERDYEDPIEAMMKAKQESNEMSIPNYSNNSVITTIPQMIEKLKSTEFYASQIKHCFTIPSRTAKYKGLCFELAPEVYQGMEHENFYSHQADAINSLHQGENVIITTSTSSGKSLIYQLAAIDLLLKDPESTFMYIFPTKALAQDQKRAFKVILSKIPELKNAVVDTYDGDTEPEERAYIRKNARVIFTNPDMIHTSILPNHANWRHFLYHLKLVVVDELHIYKGLFGSHVALVMRRLLRLCHCFYENSGLQFISCSATLKSPVQHMKDMFGINEVTLIHEDGSPTGAKHLVVWNPPILPQHERKRENFIRESAKILVQLILNNVRTIAFCYVRRVCELLMKEVRNIFIETGREDLVTEVMSYRGGYSASDRRKIEREMFHGNLKAVISTNALELGIDIGGLDAVLMCGFPLSMANFHQQSGRAGRRNNDSLTLVVASDSPVDQHYVAHPESLLEVNNFESYQDLVLDFNNILILEGHIQCAAFELPINFERDKQYFTESHLRKICVERLHHNQDGYHASNRFLPWPSKCVSLRGGEEDQFAVVDITNGRNIIIEEIEASRTSFTLYDGGIFIHQGYPYLVKEFNPDERYAKVQRVDVDWVTNQRDFTDVDPQEIELIRSLRNSDVPVYFGKIKTTIIVFGFFKVDKYKRIIDAIETHNPPVIINSKGLWIDMPKYALEICQKKQLNVAGAIHGAQHAIMGMLPRFIVAGVDEIQTECKAPEKEFAERQTKRKRPARLIFYDSKGGKYGSGLCVKAFEHIDDIIESSLRRIEECPCSDGCPDCVAASFCKENSLVLSKPGAQVVLHCILGHSEDSFIDLIKDGPEPNMPEIKVETVIPVSEHVNFSDDFKIIDVRRATKDDTHTNEIIKKEI	failed
MSSQSIDDKFMSITQMKNLIHYVKKNDALSHLCIYILIITGSRFKPVQHLRYEDLNFKKSCIHLNDTKNKYSKRNVKVRIKDLEYIQSVINKHPINQNGYIFHNFINFISYSAINDVLVRFCLKYKYDKYTLKSLRHTHCSYLLAKGISIQYISKRLGHADIHTTLKIYSHLIKEFEDSENSLIEKNLNDLFSDLEHHHHHH	failed
MTDLIYNDPDFVQFYDIENQDGRADFDYCVRLARDGGSVLDLGCGTGQLAAEMAQGCNVTGVDPASAMLDVARRRTGGDKVDWVVADARTVRLGRRFDLVLLTGHVFQVFLTDEDQRAVLRTIAEHLGPGGRFIFDTRNPAVEAWLEWTPQRSERMVEHPSLGTVRAWYDADWDAASAVVTYSTFYEIPGGRPILGAESKIAFPKKQDLAGMLDDAGLLVEQWLGDWQGEPYADTSPEIIPIGRLR	failed
MGALRGRWAEEEALRFLLGKGYRLLWRNRRTPFGEVDLFMEKDGVYVVVEVKQRASARFGAPLEAITPGKVRRLLQSARFLLGRDDLPVRLEAVLVHGTPKDFRLEHLVLEL	failed
MHLWWRYHLATIIILFAMILTIYFLVPPLFYIEIIGVIFILFLWYIISPGILLRVIKSKKVENEDVLRKFEYALALVQMKKIKLHEINSSKPNAFVLGNFLSYNVIVTRGLLESLNDRELISVLLHELHHIKNRDIEIQLIYVLIVNTFYIYIANYNPLLGLSELVIGVVLLFPVHRLLEKNADIKACRTTNWIPLNLANALVKIGYLSRFLPHEIIRDYSEVDLTLAKETILRDDKKGFIFSTHPALSERLKYISKFIKTL	failed
MTRPQAAAEDARNAMVAGLLASGISVNGLQPSHNPQVAAQMFTTATRLDPKMCDAWLARLLAGDQSIEVLAGAWAAVRTFGWETRRLGVTDLQFRPEVSDGLFLRLAITSVDSLACAYAAVLAEAKRYQEAAELLDATDPRHPFDAELVSYVRGVLYFRTKRWPDVLAQFPEATQWRHPELKAAGAAMATTALASLGVFEEAFRRAQEAIEGDRVPGAANIALYTQGMCLRHVGREEEAVELLRRVYSRDAKFTPAREALDNPNFRLILTDPETIEARTDPWDPDSAPTRAQTEAARHAEMAAKYLAEGDAELNAMLGMEQAKKEIKLIKSTTKVNLARAKMGLPVPVTSRHTLLLGPPGTGKTSVARAFTKQLCGLTVLRKPLVVETSRTKLLGRYMADAEKNTEEMLEGALGGAVFFDEMHTLHEKGYSQGDPYGNAIINTLLLYMENHRDELVVFGAGYAKAMEKMLEVNQGLRRRFSTVIEFFSYTPQELIALTQLMGRENEDVITEEESQVLLPSYTKFYMEQSYSEDGDLIRGIDLLGNAGFVRNVVEKARDHRSFRLDDEDLDAVLASDLTEFSEDQLRRFKELTREDLAEGLRAAVAEKKTK	failed
MGIIERIKEIEAEMARTQKNKATEYHLGQLKAKIAKLRTQLLEPPKGASGGGEGFEVTKYGHGRVALIGFPSVGKSTLLTMLTGTHSEAASYEFTTLTCIPGVIHYNDTKIQLLDLPGIIEGASEGKGRGRQVIAVAKSSDLVLMVLDASKSEGHRQILTKELEAVGLRLNKTPPQIYFKKKKTGGISFNTTAPLTHIDEKLCYQILHEYKIHNAEVLFRENATVDDFIDVIEGNRKYIKCVYVYNKIDVVGIDDVDRLSRQPNSIVISCNLKLNLDRLLARMWDEMGLVRVYSKPQGQQPDFDEPFVLSSDRGGCTVEDFCNHVHRTLVKDMKYALVWGTSTRHNPQNCGLSQHLEDEDVVQIVKKKERDEGGRGRFKSHSNAPARIADREKKAPLKQ	failed
MTRRVIALAGGATFKDIVRTMETQLISALPVIDSGSHVIGVVSEADVLRKEEFRDSDQLRGPRSRPPGALVKARAVTAEDLMTAPAVTVHPKAPVARAARLMARRRVKRLPVVDDEGVLQGIVSRADLLRVFLRSDPDIAEEVRREIVGGRFPEGLGSVRVEVHEGVVTLTGRVPDTSLVPLAERLVRSVEGVVDVRCVLTGPRHRMTGESEKAGAAAHRPGP	failed
MTKYALVGDVGGTNARLALCDIASGEISQAKTYSGLDYPSLEAVIRVYLEEHKVEVKDGCIAIACPITGDWVAMTNHTWAFSIAEMKKNLGFSHLEIINDFTAVSMAIPMLKKEHLIQFGGAEPVEGKPIAVYGAGTGLGVAHLVHVDKRWVSLPGEGGHVDFAPNSEEEAIILEILRAEIGHVSAERVLSGPGLVNLYRAIVKADNRLPENLKPKDITERALADSCTDCRRALSLFCVIMGRFGGNLALNLGTFGGVFIAGGIVPRFLEFFKASGFRAAFEDKGRFKEYVHDIPVYLIVHDNPGLLGSGAHLRQTLGHIL	not failed
ISSDEALKLIKEQPQLFDEYHDGFRSQVQAWPENPVDVFVDQIRYRCMKPVNAPGGLPGLKDSKEIVIADMGCGEAQLALEINNFFKNYNKKAKKYLKRRHKVHSFDLKKANERITVADIRNVPLPDESCTIVVFCLALMGTNFLDFIKEAYRILAPRGELWIAEIKSRFSDGKGNEFVDALKLMGFFHKKTFDENKMFTRFEFFKPPAEIIEERRQ	failed
